Among the data in patent publication US20250277031A1 (BEIJING HANMI PHARMACEUTICAL, published 2025) are binding result and EC50 values, retold here.

By EC50 is commonly meant the concentration at which the effect is half-maximal.

Experiment [1] has as its target T1, mouse CD47 on mouse red blood cells (mouse, UniProt Q61735 19-303).
T1 construct: whole, on cells; also called Mouse RBCs
T1 sequence (looked up): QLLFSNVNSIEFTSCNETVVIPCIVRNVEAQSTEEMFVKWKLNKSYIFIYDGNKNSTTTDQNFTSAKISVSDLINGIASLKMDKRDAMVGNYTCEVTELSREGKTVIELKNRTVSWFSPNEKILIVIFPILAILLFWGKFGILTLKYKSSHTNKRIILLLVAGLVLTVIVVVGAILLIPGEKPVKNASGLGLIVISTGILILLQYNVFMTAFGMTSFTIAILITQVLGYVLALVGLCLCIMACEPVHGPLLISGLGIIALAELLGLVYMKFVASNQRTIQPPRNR
The experiment in a line: flow cytometry on mouse RBCs. On the procedure:
The species specificity of the chimeric anti-human CD47 monoclonal antibodies was determined by flow cytometer FACS. Normal human RBCs internally donated, cynomolgus RBCs, rat RBCs and mouse RBCs were collected, washed once with cold PBS (GIBCO, Catalog number 14190) containing 2% FBS (Hyclone, Catalog number SH30084.03). The RBCs (2×10⁶ cells per tube) were resuspended in 100 μL of cold PBS containing 2% FBS, and the serially diluted anti-human CD47 antibody samples and the control CC-90002 and the isotype control were added therein. Flow tubes were incubated on ice for 30 minutes. The cells were washed twice with PBS containing 2% FBS. Then the pellets were resuspended in 200 μL of cold PBS containing 2% FBS and FITC-labeled anti-human IgG antibody diluted 1:1000 (Beijing Zhongshan Golden Bridge, Catalog number ZF0306), incubated on ice for 30 minutes in the dark. The cells were washed twice with PBS containing 2% FBS, then resuspended in 500 μL of cold PBS. The cell suspension obtained was detected and analyzed on a flow cytometer (BD, FACS Calibur), and the fluorescence intensities of the RBCs were read.
(In general: Flow cytometry measures light scatter and fluorescence of single cells or particles in a stream.)

Another experiment concerns the target T2, recombinant human CD47 (human, UniProt Q08722 19-139).
T2 construct: also called antigen CD47
The experiment in a line: ELISA, plate coated with 1 µg/mL recombinant human CD47, OD450. The method, then:
A 96-well high-adsorption ELISA plate was coated with 1 μg/mL of the recombinant human CD47 (Sino Biological Inc.) at 100 μL per well using carbonate buffer solution, pH=9.6 at 4° C. overnight. The plate was washed 5 times with PBST, and then blocked using PBST with 1% BSA, 300 μL/well, and incubated at 25° C. for 1 hour, and then washed 5 times with PBST. The anti-human CD47 antibody samples and the control CC-90002 (a patent sequence from WO2016109415) were added, 100 μL/well, incubated at 25° C. for 1 hour, and then washed 5 times with PBST. The horseradish peroxidase-labeled anti-mouse IgG antibody (Abcam, catalog number Ab7068) diluted 1:10000 in PBST with 1% BSA was then added, 100 μL per well, and incubated at 25° C. for 1 hour. The plate was washed 5 times with PBST. The colorimetric substrate TMB was added, 100 μL/well, and developed at room temperature for 10 minutes. 1M H₂SO₄ was added, 100 μL/well, to stop the development. The absorbance at 450 nm was read on a microplate reader.

The target in another experiment is T3, recombinant mouse CD47 (mouse, UniProt Q61735 19-140, limits assumed).
T3 sequence (looked up): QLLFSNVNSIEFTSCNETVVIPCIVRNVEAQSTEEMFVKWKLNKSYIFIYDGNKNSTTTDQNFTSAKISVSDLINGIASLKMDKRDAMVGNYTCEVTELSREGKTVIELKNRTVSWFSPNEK
Put plainly: ELISA, plate coated with 1 µg/mL recombinant mouse CD47, anti-human IgG-HRP, OD450. On the procedure:
(§1) Species specificity of the chimeric anti-human CD47 mAbs was determined by ELISA. A 96-well high-adsorption ELISA plate was coated with 1 μg/mL of the recombinant human CD47, cynomolgus CD47, rat CD47 and mouse CD47, at 100 μL per well using carbonate buffer solution, pH=9.6 at 4° C. overnight. The plate was washed 5 times with PBST, and then blocked using PBST with 1% BSA, 300 μL/well, and incubated at 25° C. for 1 hour, and then washed 5 times with PBST. The chimeric anti-human CD47 antibody samples serially diluted in PBST with 1% BSA were added, 100 μL/well, incubated at 25° C. for 1 hour, and then washed 5 times with PBST. The horseradish peroxidase-labeled anti-human IgG antibody (Chemicon, catalog number AP309P) diluted 1:10000 in PBST with 1% BSA was then added, 100 μL per well, and incubated at 25° C. for 1 hour. The plate was washed 5 times with PBST. The colorimetric substrate TMB was added, 100 μL/well, and developed at room temperature for 10 minutes. 1M H₂SO₄ was added, 100 μL/well, to stop the development. The absorbance at 450 nm was read on a microplate reader.

Experiment [2] concerns the target recombinant cynomolgus CD47 (cynomolgus, UniProt A0A2K5X523 19-139). Put plainly: ELISA, plate coated with 1 µg/mL recombinant cynomolgus CD47, anti-human IgG-HRP, OD450. On the procedure:
as §1
In general terms: An ELISA detects its analyte on a solid surface through an enzyme-linked reagent.

T2 sequence (Q08722 19-139 limits assumed): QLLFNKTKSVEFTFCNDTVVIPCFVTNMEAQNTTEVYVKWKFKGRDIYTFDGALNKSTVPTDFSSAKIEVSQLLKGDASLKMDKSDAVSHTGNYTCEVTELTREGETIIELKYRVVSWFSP

B1: chimeric anti-human CD47 monoclonal antibody mAb-18-5 (antibody, human IgG1, kappa)
heavy: not shown
light: DIVMTQSQKFMSTSVGDRVSITCKASQNVRTSIAWYQQKSGQSPKTLIYLASNRHTGVPDRFTGSGSGTDFTLTISNVQSEDLADYFCLQHWNYPFTFGSGTKLEIKRTVAAPSVFIFPPSDEQLKSGTASVVCLLNNFYPREAKVQWKVDNALQSGNSQESVTEQDSKDSTYSLSSTLTLSKADYEKHKVYACEVTHQGLSSPVTKSFNRGEC
With B1, the binding result in experiment [1] is on record as “no binding”; in the experiment with recombinant mouse CD47 it was “no binding (tested: about 20 nM)”. Moreover, the results for the EC50 (with recombinant human CD47; in experiment [2]) were 0.026 nM and 0.089 nM, respectively.
